Values quoted from earlier work, collected in patent US20220223299A1, “METHODS AND APPARATUSES FOR MODELING, SIMULATING, AND TREATING HEREDITARY ANGIOEDEMA” (Takeda Pharmaceutical Company Limited, priority 2019, published 2022).

T1: FXIIa (Homo sapiens, UniProt P00748)
T1 sequence (P00748 20-372 partner limits assumed): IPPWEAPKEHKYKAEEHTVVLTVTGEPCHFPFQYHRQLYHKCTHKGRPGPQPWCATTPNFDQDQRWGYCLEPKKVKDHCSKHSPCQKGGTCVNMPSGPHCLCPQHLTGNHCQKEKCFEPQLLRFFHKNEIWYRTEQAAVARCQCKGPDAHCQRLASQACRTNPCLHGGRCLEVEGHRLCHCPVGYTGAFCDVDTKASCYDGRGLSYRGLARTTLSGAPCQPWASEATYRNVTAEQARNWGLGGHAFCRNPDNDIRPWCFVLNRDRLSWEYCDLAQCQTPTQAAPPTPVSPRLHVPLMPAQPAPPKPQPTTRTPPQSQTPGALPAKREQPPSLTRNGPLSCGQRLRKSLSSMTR
T1 sequence (P00748 373-615 limits assumed): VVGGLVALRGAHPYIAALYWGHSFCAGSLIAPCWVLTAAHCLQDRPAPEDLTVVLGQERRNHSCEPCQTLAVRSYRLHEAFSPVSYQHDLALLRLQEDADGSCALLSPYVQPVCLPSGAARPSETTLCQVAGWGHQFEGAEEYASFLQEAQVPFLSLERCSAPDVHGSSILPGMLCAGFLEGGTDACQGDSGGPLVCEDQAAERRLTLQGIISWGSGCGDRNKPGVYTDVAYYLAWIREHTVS


Key:
FXIIa = target: T1, FXIIa; settings: FXIIa in plasma and FXIIa_gC1qR
KAL (kallikrein) = target: T2, KAL (kallikrein) (Homo sapiens, UniProt P03952); settings: KAL in plasma, KAL_HMWK in plasma and KAL_HMWK_gC1qR
T2 construct: The preKAL is cleaved by FXIIa resulting in KAL, the two-chain enzyme kallikrein
T2 sequence (P03952 20-390 partner limits assumed): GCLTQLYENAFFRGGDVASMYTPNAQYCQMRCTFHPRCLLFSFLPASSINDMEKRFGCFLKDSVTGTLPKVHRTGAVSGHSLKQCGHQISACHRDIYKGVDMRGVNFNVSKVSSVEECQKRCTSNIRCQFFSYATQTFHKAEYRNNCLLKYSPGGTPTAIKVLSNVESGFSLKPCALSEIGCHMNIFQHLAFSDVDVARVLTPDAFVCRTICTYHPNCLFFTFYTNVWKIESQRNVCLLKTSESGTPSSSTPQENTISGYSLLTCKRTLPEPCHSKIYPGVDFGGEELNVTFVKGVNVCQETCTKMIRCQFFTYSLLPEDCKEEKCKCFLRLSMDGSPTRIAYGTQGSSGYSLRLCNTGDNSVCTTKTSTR
T2 sequence (P03952 391-638 limits assumed): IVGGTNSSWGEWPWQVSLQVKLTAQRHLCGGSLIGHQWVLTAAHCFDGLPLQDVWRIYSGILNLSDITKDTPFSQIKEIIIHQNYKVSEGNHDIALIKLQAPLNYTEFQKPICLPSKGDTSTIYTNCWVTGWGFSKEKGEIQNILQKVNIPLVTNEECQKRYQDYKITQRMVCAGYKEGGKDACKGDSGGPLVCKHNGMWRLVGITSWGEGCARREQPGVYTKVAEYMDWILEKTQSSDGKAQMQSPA

KAL (plasma kallikrein) = target: T3, KAL (plasma kallikrein) (Homo sapiens, UniProt P03952); settings: KAL in plasma, KAL_HMWK in plasma and KAL_HMWK_gC1qR
T3 construct: The preKAL is cleaved by FXIIa resulting in KAL, the two-chain enzyme kallikrein
T3 sequence (P03952 20-390 partner limits assumed): as the sequence (P03952 20-390 partner limits assumed) above
T3 sequence (P03952 391-638 limits assumed): as the sequence (P03952 391-638 limits assumed) above

[1] = in vivo

Molecule | koff_C1Inh_FXIIa (FXIIa) [s⁻¹] | kon_C1Inh_FXIIa (FXIIa) [M⁻¹ s⁻¹] | Kd (FXIIa; read-out: Kd_C1Inh_FXIIa) [nM] | koff_C1Inh_KAL (KAL (kallikrein)) [s⁻¹] | kon_C1Inh_KAL (KAL (kallikrein)) [M⁻¹ s⁻¹] | Kd (KAL (kallikrein); read-out: Kd_C1Inh_KAL) [nM] | kdeg_C1Inh, degradation rate for C1Inh (vascular space) [s⁻¹] | kdeg_Bound_C1Inh, degradation rate for bound C1Inh (vascular space, bound C1Inh) [s⁻¹] | koff_KAL_Lanadelumab (KAL (plasma kallikrein)) [s⁻¹] | kon_KAL_Lanadelumab (KAL (plasma kallikrein)) [M⁻¹ s⁻¹] | Kd (KAL (plasma kallikrein); read-out: Kd_KAL_Lanadelumab) [nM] | half-life [1] [days] | kdeg Lanadelumab KAL HMWK gC1qR, degradation rate for Lanadelumab bound with KAL HMWK gC1qR receptor complex (proximal space) [s⁻¹]
C1Inh: C1 inhibitor protein; binds to and inhibits both Factor XIIa and kallikrein | 0.06364 | 37000 | 1720 | 0.00255 | 17000 | 150 | 4.58e-06 | 0.0038508 |  |  |  |  | 
Lanadelumab: fully human IgG1 recombinant monoclonal antibody inhibitor of activated plasma kallikrein (antibody, chains of the INN, looked up, V domains shown) VH: EVQLLESGGGLVQPGGSLRLSCAASGFTFSHYIMMWVRQAPGKGLEWVSGIYSSGGITVYADSVKGRFTISRDNSKNTLYLQMNSLRAEDTAVYYCAYRRIGVPRRDEFDIWGQGTMVTVSS VL: DIQMTQSPSTLSASVGDRVTITCRASQSISSWLAWYQQKPGKAPKLLIYKASTLESGVPSRFSGSGSGTEFTLTISSLQPDDFATYYCQQYNTYWTFGQGTKVEIK |  |  |  |  |  |  |  |  | 0.0004033 | 3.36e+06 | 0.12 | 14 | 9.63e-05
